In the assay the target is SHP2 N-terminal SH2 domain, T42A (human). Kind of assay: fluorescence polarisation.

The text below walks through data of publication PMC11287265.

“fluorescent phosphopeptide derived from pTyr1179 of insulin receptor substrate 1 (IRS-1)”: the fold tighter binding against N-SH2 WT came to 5 fold.
